Data published in patent publication US5279812.
Where two headings read alike, the source gives them in different places.

Assays:
[1] = target: Bovine thrombin (bovine) (UniProt P00735)
[2] = target: Bovine thrombin (bovine) (UniProt P00735); remark: listed apart in the source

Row | Substance | IC50, thrombin induced fibrin clot inhibition assay (turbidity at 405 nM) [1] [µM] | IC50, thrombin induced fibrin clot inhibition assay (turbidity at 405 nM) [2] [µM]
1 | Suc--Tyr--Glu--Pro--Tiq--Glu--Glu--Ala--Cha--D--Glu (ID#9) (peptide) | < 25 | –
2 | Suc--Tyr--Glu--Pro--Ile--Pro--Glu--Glu--Cha--D--Glu (ID#21) (peptide) | < 25 | –
3 | Suc--Tyr--Glu--Pro--Ile--Pro--Glu--Glu--Cha--Gln--NH2 (ID#11) (peptide) | < 25 | –
4 | Suc 3,5-diI-Tyr Glu Pro Ile Pro Glu Glu Ala Cha D-Glu (ID#4) (peptide) | – | < 25
